According to publication PMC12318175:
Read-outs that look alike come from different tables or passages of the source.

How the values were obtained:
GST-OGG1 [1] = target: T1, GST-OGG1 (mouse, UniProt O08760 1-345); assay: EMSA
GST-OGG1 [2] = target: T1, GST-OGG1; assay: EMSA; remark: listed apart in the source

T1 sequence (O08760 whole entry): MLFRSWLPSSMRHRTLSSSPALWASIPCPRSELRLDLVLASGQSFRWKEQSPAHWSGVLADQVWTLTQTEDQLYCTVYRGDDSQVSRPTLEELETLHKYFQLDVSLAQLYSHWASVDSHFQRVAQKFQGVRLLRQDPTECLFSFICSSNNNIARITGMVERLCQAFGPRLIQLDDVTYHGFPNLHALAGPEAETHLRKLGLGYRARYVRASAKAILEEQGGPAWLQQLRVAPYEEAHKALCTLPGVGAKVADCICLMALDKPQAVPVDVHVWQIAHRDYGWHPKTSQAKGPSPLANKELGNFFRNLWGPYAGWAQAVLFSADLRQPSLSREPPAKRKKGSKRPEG

B1: Cy5-5mC8-oxoG/GC (Foxp3 CNS2) (dsDNA)
DNA 1: GCCGATGAAGCCCAATGCATCCGGCCGCCATGACGTCA
DNA 2: TGACGTCATGGCGGCCGGATGCATTGGGCTTCATCGGC
modifications: 5mC at sense C22; 8-oxoG at sense G23
B1: binds (GST-OGG1 [1]).

B2: Cy5-WT (Foxp3 pro) (dsDNA)
DNA 1: AAGTGTGGGTATGGGAGCCAGACTGTCTGGAACAACCTA
DNA 2: TAGGTTGTTCCAGACAGTCTCGCTCCCATACCCACACTT
B2: no binding (GST-OGG1 [2]).
